B1: Bcl2L12-V5-ΔBH2: V5 tagged mutant lacking amino acid residues 311-334 (BH2 domain) of human Bcl2L12; sequence 1-310 (protein)
chain: MGRPAGLFPPLCPFLGFRPEACWERHMQIERAPSVPPFLRWAGYRPGPVRRRGKVELIKFVRVQWRRPQVEWRRRRWGPGPGASMAGSEELGLREDTLRVLAAFLRRGEAAGSPVPTPPRSPAQEEPTDFLSRLRRCLPCSLGRGAAPSESPRPCSLPIRPCYGLEPGPATPDFYALVAQRLEQLVQEQLKSPPSPELQGPPSTEKEAILRRLVALLEEEAEVINQKLASDPALRSKLVRLSSDSFARLVELFCSRDDSSRPSRACPGPPPPSPEPLARLALAMELSRRVAGLGGTLAGLSVEHVHSFTP
modifications: left off: small tags and cut ends
B2: Bcl2L12-V5: Bcl2L12 polypeptide having the V5 epitope tag, ectopically expressed from pBabe-Bcl2L12-V5 vector; human amino acid sequence 1-334 (protein)
chain: MGRPAGLFPPLCPFLGFRPEACWERHMQIERAPSVPPFLRWAGYRPGPVRRRGKVELIKFVRVQWRRPQVEWRRRRWGPGPGASMAGSEELGLREDTLRVLAAFLRRGEAAGSPVPTPPRSPAQEEPTDFLSRLRRCLPCSLGRGAAPSESPRPCSLPIRPCYGLEPGPATPDFYALVAQRLEQLVQEQLKSPPSPELQGPPSTEKEAILRRLVALLEEEAEVINQKLASDPALRSKLVRLSSDSFARLVELFCSRDDSSRPSRACPGPPPPSPEPLARLALAMELSRRVAGLGGTLAGLSVEHVHSFTPWIQAHGGWEGILAVSPVDLNLPLD
modifications: left off: small tags and cut ends

How the values were obtained:
[1] = system: Ink4a/Arf deficient astrocytes; assay: DNA fragmentation (sub-G1, FACS) in Ink4a/Arf deficient astrocytes after apoptotic stimuli; format: cell-based, mouse; settings: for DNA fragmentation: 500 nM STS, pBabe about 22 percent
Protocol: (§1) After STS treatment, the cells were analyzed for apoptosis by assessing annexin V binding and DNA fragmentation using a FACS based analysis.
In a separate experiment, Ink4a/Arf deficient astrocytes ectopically expressing Bcl2L12-V5 polypeptide or containing an empty vector as control were treated with 0, 50, 100, or 1000 nM of STS. After a 24 hour-incubation, DNA fragmentation was measured using FACS-based quantification of sub-G1 DNA content.
In another experiment, Ink4a/Arf deficient astrocytes ectopically expressing Bcl2L12-V5 polypeptide or containing an empty vector as control were treated with 0, 2, 4, 8, 16, or 32 μM camptothecin (CPT) for 20 hours. After the 20 hour incubation, DNA fragmentation was determined by FACS-based quantification of sub-G1 peaks. Expression of the Bcl2L12 polypeptide conferred resistance to CPT-stimulated apoptosis.
Ink4a/Arf deficient astrocytes ectopically expressing Bcl2L12-V5 polypeptide or containing an empty vector as control were treated with TNFα in the presence of 1 μg/mL cycloheximide for 24 hours. After the 24 hour incubation, DNA fragmentation was measured using FACS-based quantification of sub-G1 DNA content.
Ink4a/Arf deficient astrocytes ectopically expressing Bcl2L12-V5 polypeptide or containing an empty vector as control were treated with 0, 10, 50, and 100 Gray (Gy) of γ radiation. After 24 hours, DNA fragmentation was measured. Ectopic expression of a Bcl2L12 polypeptide protects INK4a/Arf deficient astrocytes from γ-irradiation-induced apoptosis (FIG. 5C).

cytochrome c release = assay: Cytochrome c release in STS-treated astrocytes; format: cell-based
Protocol: To determine whether Bcl2L12 polypeptides inhibit the apoptogenic activity of mitochondria, cytochrome c release in STS-treated astrocytes over-expressing Bcl2L12-V5 polypeptides was assessed and compared to astrocytes transfected with a LacZ control vector. An anti-tubulin immunoblot was performed as a loading control. Suboptimal concentrations of digitonin were used to allow for selective permeabilization of the plasma membrane, but not of the intracellular membranes. […] This is consistent with the inability of Bcl2L12-V5 polypeptides to localize to mitochondria.

[2] = system: caspase-2; caspase-3/7; caspase-6; caspase-8; and caspase-9; assay: Caspase activity with AFC-labeled peptides in lysates of STS-treated astrocytes; format: cell-based; settings: for caspase activity (caspase-2, -3/7, -6, -8, -9): STS (500 nm) 24 hours
Protocol: The following experiment was performed to determine whether Bcl2L12 inhibits caspase activation. Briefly, a caspase activation profile was generated using fluorochrome-labeled peptides resembling the ideal cleavage sites for caspases-2 (VDVAF; SEQ ID NO:29), caspases-3/7 (DEVD; SEQ ID NO:27), caspase-6 (VEID; SEQ ID NO:31), caspase-8 (IETD; SEQ ID NO:30), and caspase-9 (LEHD; SEQ ID NO:28). Two confluent 15 cm dishes of astrocytes (pBabe or Bcl2L12-V5 transfected) were left untreated or treated with STS (500 nm) for 24 hours and lysed in a lysis buffer containing 1% Trition X-100. The lysed cells were then spun for 15 minutes at 14,000 rpm at 4° C. to obtain a postnuclear supernatant. The supernatants (standardized to 20 mg of protein) were incubated with 40 μM of AFC labeled peptide substrate for 1 hour at 37° C. The samples were read in a fluorescence plate reader, and the specific RFUs were calculated. In the presence of active caspases, the fluorogenic group AFC is released from the peptide, and its fluorescence can be quantified using a plate reader.
The mechanism of action of EGFR*, in contrast to Bcl2L12, stems from the activation of upstream survival pathways that converge to inhibit cytochrome c redistribution and subsequent caspase-9 processing (FIG. 8B), as reported previously (Nagane et al., Proc Natl Acad Sci USA 95:5724-9(1998)). In addition, the ability of Bcl2L12 polypeptide to inhibit effector caspase function is reflected in decreased levels of the caspase-9 p37 as a result of caspase-3-mediated cleavage intermediate (FIG. 8A, 16 hours; Fujita et al., Cell Death Differ. 8:335-44 (2001)). […] As a consequence of a caspase-3-mediated feedback mechanism (Fujita et al., Cell Death Differ. 8:335-44 (2001); Slee et al., J Cell Biol. 144, 281-92 (1999)), caspase-9 processing in later phases of apoptosis progression was enhanced (FIG. 8C, 16 hours). […] Caspase activities were determined fluorometrically using a fluorescence plate reader. […]

[3] = system: Ink4a/Arf deficient astrocytes; assay: Colony formation of Ink4a/Arf deficient astrocytes after gamma-irradiation; format: cell-based, mouse; settings: γ-irradiated 5 Gy, ten days, 1000 cells/10 cm dish; vector only about 17
Protocol: The ability of Bcl2L12 polypeptide to promote colony formation was assessed. Briefly, 1000 cells were seeded in a 10 cm dish and γ-irradiated (5 Gy). After culturing the irradiated cells for ten days, the cells were stained with crystal violet, and the number of colonies was counted. Bcl2L12-V5 polypeptide expression promoted colony formation in Ink4a/Arf deficient astrocytes upon γ-irradiation (about 27 colonies for cells expressing Bcl2L12-V5 polypeptides compared to about 17 colonies for control vector only cells; 1000 cells/10 cm dish).

[4] = system: Ink4a-/-/Arf-/- astrocytes; assay: Annexin V staining of STS-treated Ink4a/Arf deficient astrocytes (FACS); format: cell-based, mouse
Protocol: The following experiments were performed to determine whether the Bcl2L12 polypeptide influenced cell survival or apoptosis. Ink4a^−/−/Arf^−/− astrocytes retro-virally infected with vector alone (pBabe) or vector containing Bcl2 nucleic acid, Bcl2L12-V5 nucleic acid, R-RAS nucleic acid, or IRF3 nucleic acid were […] After this one day incubation, the cells were stained with annexin V (Roche). Annexin V-positive cells were determined by FACScan analysis (mean±S.D.; three independent experiments with each being performed in triplicate).
as §1

Molecule | DNA fragmentation [1] | cytochrome c release (cytochrome c release) | caspase activity (caspase-2, -3/7, -6, -8, -9) [2] | resistance to anti-Fas, TRAIL, etoposide, and carboplatin mediated apoptosis [1] | protection from γ-irradiation-induced apoptosis (DNA fragmentation) ([1]; 10, 50, 100 Gy, 24 hours) | protection from STS-induced apoptosis (DNA fragmentation) ([1]; 50, 100, or 1000 nM STS, 24 hours) | protection from TNFα-mediated apoptosis (DNA fragmentation) ([1]; TNFα with 1 μg/mL cycloheximide, 24 hours) | maximum percent DNA fragmentation ([1]; camptothecin up to 32 μM, 20 hours, pBabe greater than 60 percent) [%] | number of colonies [3] | DEVDase activity ([2]; 0.5 μM STS, pBabe about 8500 RFUs) | annexin-V positive cells ([4]; 100 nM staurosporine one day, control cultures about 17-22 percent) | annexin V+/PI- cells ([4]; 500 nM STS, pBabe about 20 percent)
B1 | about 7% | exhibited cytochrome c release | even more pronounced inhibition | – | – | – | – | – | – | – | – | –
B2 | about 2% | did not block cytochrome c release | significantly impaired | complete resistance | protects | protected astrocytes from STS-induced apoptosis | significant protection | 35 to 45 | about 27 colonies | about 3500 RFUs | 6-7% | about 6%
